Reference: paper PMC4198189, “Human Valacyclovir Hydrolase/Biphenyl Hydrolase-Like Protein Is a Highly Efficient Homocysteine Thiolactonase” (PLoS ONE, 2014)

Substrate: N[C@H]1CCSC1=O
Assay: purified protein
Assay type: biochemical, Homo sapiens
Conditions: Dulbecco's PBS with 0.32 mM DTNB, 37 °C, partially purified native enzyme

B1: human liver BPHL (purified human liver HCTLase) (Homo sapiens) (protein)
chain: SVTSAKVAVNGVQLHYQQTGEGDHAVLLLPGMLGSGETDFGPQLKNLNKKLFTVVAWDPRGYGHSRPPDRDFPADFFERDAKDAVDLMKALKFKKVSLLGWSDGGITALIAAAKYPSYIHKMVIWGANAYVTDEDSMIYEGIRDVSKWSERTRKPLEALYGYDYFARTCEKWVDGIRQFKHLPDGNICRHLLPRVQCPALIVHGEKDPLVPRFHADFIHKHVKGSRLHLMPEGKHNLHLRFADEFNKLAEDFLQ
notes: native, partially purified from pooled human liver (five donors); about 30 kDa by gel filtration; identified by MS, with ACAA1 and hydroxyacyl-CoA dehydrogenase bands co-purifying
- Km: 3.92 mM
